Ends that are not written are not given here. Peptide text beside a SMILES is read from it. * marks the point of attachment. MTS‑TFMD = trifluoromethyl phenyl diazirine photocrosslinker tag, disulfide-linked to Cys via MTS; MTS‑diazirine = alkyl diazirine tag, disulfide-linked to Cys via MTS; X1 = FC(F)(F)C1(c2ccc(CS*)cc2)N=N1; X2 = CC1(CCS*)N=N1

The labels stand for the following.
T1: MCL-1 (human, UniProt Q07820 1-350)
T1 chain: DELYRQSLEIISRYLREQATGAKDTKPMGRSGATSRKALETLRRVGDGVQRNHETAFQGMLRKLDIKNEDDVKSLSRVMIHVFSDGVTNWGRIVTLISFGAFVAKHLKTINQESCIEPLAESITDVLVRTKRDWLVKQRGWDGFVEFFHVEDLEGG

B1: BID_(80-102) S100C tagged with MTS-TFMD (peptide)
chain: EDIIRNIARHLAQVGDSMDRCIP
modifications: Cys100 disulfide-linked to MTS-TFMD (trifluoromethyl phenyl diazirine) tag; synthetic peptide, termini not stated in main text Limits not printed in the main text (supplement); 172-327 is the usual soluble MCL-1 construct for BH3 assays, close to the PDB 2KBW construct
B2: WT BID_(80-102) (peptide)
peptide: EDIIRNIARHLAQVGDSMDRSIP
modifications: Limits not printed in the main text (supplement); 172-327 is the usual soluble MCL-1 construct for BH3 assays, close to the PDB 2KBW construct
B3: BID_(80-102) S100C tagged with MTS-diazirine (peptide)
chain: EDIIRNIARHLAQVGDSMDRCIP
modifications: Cys100 disulfide-linked to MTS-diazirine (alkyl diazirine) tag; synthetic peptide, termini not stated in main text Limits not printed in the main text (supplement); 172-327 is the usual soluble MCL-1 construct for BH3 assays, close to the PDB 2KBW construct

T2 sequence (Q07820 whole entry): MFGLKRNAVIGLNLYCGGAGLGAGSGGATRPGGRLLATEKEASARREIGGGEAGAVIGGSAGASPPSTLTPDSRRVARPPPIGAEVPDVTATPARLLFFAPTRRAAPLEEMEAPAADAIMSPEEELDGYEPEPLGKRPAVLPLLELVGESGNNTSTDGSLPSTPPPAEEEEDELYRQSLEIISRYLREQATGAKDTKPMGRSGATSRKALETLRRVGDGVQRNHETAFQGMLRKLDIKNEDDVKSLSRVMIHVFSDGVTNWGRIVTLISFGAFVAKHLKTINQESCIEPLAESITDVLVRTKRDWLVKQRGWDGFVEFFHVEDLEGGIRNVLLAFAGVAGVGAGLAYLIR

The target of the first test is T1, MCL-1. Description: FP.
Settings: not given
A word on the EC50: it is the concentration needed to bring the measured effect to its halfway point. A lower EC50 goes with a more potent agent. EDIIRNC(MTS‑TFMD)ARHLAQVGDSMDRSIP [BID_(80-102) I86C tagged with MTS-TFMD] showed an EC50 of 1410 nM.

The molecule B1 had an EC50 of 287 nM.

Molecule B2 returned an EC50 of 460 nM.

Regarding EDIC(MTS‑diazirine)RNIARHLAQVGDSMDRSIP [BID_(80-102) I83C tagged with MTS-diazirine], a half-maximal effect (EC50) was put at 406 nM.

EDIC(MTS‑TFMD)RNIARHLAQVGDSMDRSIP [BID_(80-102) I83C tagged with MTS-TFMD] had an EC50 of 338 nM.

Turning to B3, the EC50 worked out at 360 nM.

In turn, EDIIRNC(MTS‑diazirine)ARHLAQVGDSMDRSIP [BID_(80-102) I86C tagged with MTS-diazirine] gave an EC50 of 5510 nM.

Regarding EDIIRNIARHLAQVGDSC(MTS‑diazirine)DRSIP [BID_(80-102) M97C tagged with MTS-diazirine], the EC50 worked out at 422 nM.

EDIIRNIARHLAQVGDSC(MTS‑TFMD)DRSIP [BID_(80-102) M97C tagged with MTS-TFMD] came in with an EC50 of 255 nM.

In turn, EDIIRNIARHLAQC(MTS‑diazirine)GDSMDRSIP [BID_(80-102) V93C tagged with MTS-diazirine] displayed an EC50 of 8750 nM.

Another test addresses T2, MCL-1 (Homo sapiens, UniProt Q07820).
T2 construct: made in house
Description: Photo-crosslinking of labelled BID80-102 peptides to MCL-1, SDS-PAGE band intensity. The following applies: 20 μM labelled peptide + 20 μM MCL-1, TBS pH 7.6; 365 nm UV LED, 1 min; SDS-PAGE band intensity of crosslinked vs non-crosslinked MCL-1; value ± SD of three repeats; SD. Here is the method:
Cross-linking experiments
For all irradiation methods, samples were prepared in the following way. For crosslinking of MCL-1/BID80-102, 20 μL of a solution containing MTS-diazirine or MTS-TFMD labelled BID80-102 peptide (20 μM) and MCL-1 (20 μM) in buffer 50 mM Tris-HCl, 150 mM NaCl (TBS) pH 7.6 was prepared. […]
This was then placed under a covered LF-206.LS 6 W 365 nm lamp (Uvitec) at a distance of 12 mm from the source for different times up to 30 min. For UV LED chip experiments, acrylic chip chambers were washed with TBS pH 7.6 buffer and 33 µL of sample was added. These were then clamped into the chip holder and irradiated with the 365 nm LED for up to 30 s. A pipette was used to remove the sample from the chip via the lower filling hole. For UV LED tube experiments, 30-130 µL of sample was added to a thin-walled PCR tube and placed inside a 0.5 mL microfuge tube which itself was in a 1.5 mL microfuge tube that had been wrapped in aluminium foil (to reflect the UV irradiation within the containers). Samples were irradiated with the 365 nm LED for 30 s. To crosslink MCL-1 BID80-102, samples were irradiated using this apparatus for 1 min.
Separation and enrichment of cross-linked products
To separate and/or enrich crosslinked samples three methods were used as described in the main text.
Table S1: Affinity (EC50) of labelled BID80-102 peptides to MCL-1 as determined by competition fluorescence anisotropy assay. Crosslinking efficiency of labelled BID80-102 peptides to MCL-1 based on the SDS-PAGE band intensity of crosslinked and non-crosslinked […]
The values and standard deviations are results of three repeats. n.d = not determined as binding was too weak to enable an accurate fit to be obtained.
BID peptide EC50 for affinity to MCL-1 (nM) Crosslinked Mcl-1 (%)
As to `CC[C@H](C)[C@H](NC(=O)[C@H](CC(N)=O)NC(=O)[C@H](CCCNC(=N)N)NC(=O)[C@H](CSSCc1ccc(C2(C(F)(F)F)N=N2)cc1)NC(=O)[C@@H](NC(=O)[C@H](CC(=O)O)NC(=O)[C@H](CCC(=O)O)NC(C)=O)[C@@H](C)CC)C(=O)N[C@@H](C)C(=O)N[C@@H](CCCNC(=N)N)C(=O)N[C@@H](Cc1c[nH]cn1)C(=O)N[C@@H](CC(C)C)C(=O)N[C@@H](C)C(=O)N[C@@H](CCC(N)=O)C(=O)N[C@H](C(=O)NCC(=O)N[C@@H](CC(=O)O)C(=O)N[C@@H](CO)C(=O)N[C@@H](CCSC)C(=O)N[C@@H](CC(=O)O)C(=O)N[C@@H](CCCNC(=N)N)C(=O)N[C@@H](CO)C(=O)N[C@H](C(=O)N[C@@H](Cc1c[nH]c2ccccc12)C(N)=O)[C@@H](C)CC)C(C)C` [MTS-TMFD labelled I83C] (Ac-EDIC(X1)RNIARHLAQVGDSMDRSIW-NH2), the “Crosslinked Mcl-1 (crosslinking efficiency)” value was determined as 51 ± 6%.

In the case of `CC[C@H](C)[C@H](NC(=O)[C@H](CO)NC(=O)[C@H](CCCNC(=N)N)NC(=O)[C@H](CC(=O)O)NC(=O)[C@H](CCSC)NC(=O)[C@H](CO)NC(=O)[C@H](CC(=O)O)NC(=O)CNC(=O)[C@@H](NC(=O)[C@H](CCC(N)=O)NC(=O)[C@H](C)NC(=O)[C@H](CC(C)C)NC(=O)[C@H](Cc1c[nH]cn1)NC(=O)[C@H](CCCNC(=N)N)NC(=O)[C@H](C)NC(=O)[C@H](CSSCc1ccc(C2(C(F)(F)F)N=N2)cc1)NC(=O)[C@H](CC(N)=O)NC(=O)[C@H](CCCNC(=N)N)NC(=O)[C@@H](NC(=O)[C@@H](NC(=O)[C@H](CC(=O)O)NC(=O)[C@H](CCC(=O)O)NC(C)=O)[C@@H](C)CC)[C@@H](C)CC)C(C)C)C(=O)N[C@@H](Cc1c[nH]c2ccccc12)C(N)=O` [MTS-TMFD labelled I86C] (Ac-EDIIRNC(X1)ARHLAQVGDSMDRSIW-NH2), the “Crosslinked Mcl-1 (crosslinking efficiency)” value was 53 ± 1%.

In the case of `CC[C@H](C)[C@H](NC(=O)[C@H](CC(N)=O)NC(=O)[C@H](CCCNC(=N)N)NC(=O)[C@@H](NC(=O)[C@@H](NC(=O)[C@H](CC(=O)O)NC(=O)[C@H](CCC(=O)O)NC(C)=O)[C@@H](C)CC)[C@@H](C)CC)C(=O)N[C@@H](C)C(=O)N[C@@H](CCCNC(=N)N)C(=O)N[C@@H](Cc1c[nH]cn1)C(=O)N[C@@H](CC(C)C)C(=O)N[C@@H](C)C(=O)N[C@@H](CCC(N)=O)C(=O)N[C@H](C(=O)NCC(=O)N[C@@H](CC(=O)O)C(=O)N[C@@H](CO)C(=O)N[C@@H](CSSCc1ccc(C2(C(F)(F)F)N=N2)cc1)C(=O)N[C@@H](CC(=O)O)C(=O)N[C@@H](CCCNC(=N)N)C(=O)N[C@@H](CO)C(=O)N[C@H](C(=O)N[C@@H](Cc1c[nH]c2ccccc12)C(N)=O)[C@@H](C)CC)C(C)C` [MTS-TMFD labelled M97C] (Ac-EDIIRNIARHLAQVGDSC(X1)DRSIW-NH2), the “Crosslinked Mcl-1 (crosslinking efficiency)” value worked out at 26 ± 1%.

For `CC[C@H](C)[C@H](NC(=O)[C@H](CC(N)=O)NC(=O)[C@H](CCCNC(=N)N)NC(=O)[C@@H](NC(=O)[C@@H](NC(=O)[C@H](CC(=O)O)NC(=O)[C@H](CCC(=O)O)NC(C)=O)[C@@H](C)CC)[C@@H](C)CC)C(=O)N[C@@H](C)C(=O)N[C@@H](CCCNC(=N)N)C(=O)N[C@@H](Cc1c[nH]cn1)C(=O)N[C@@H](CC(C)C)C(=O)N[C@@H](C)C(=O)N[C@@H](CCC(N)=O)C(=O)N[C@H](C(=O)NCC(=O)N[C@@H](CC(=O)O)C(=O)N[C@@H](CO)C(=O)N[C@@H](CCSC)C(=O)N[C@@H](CC(=O)O)C(=O)N[C@@H](CCCNC(=N)N)C(=O)N[C@@H](CSSCc1ccc(C2(C(F)(F)F)N=N2)cc1)C(=O)N[C@H](C(=O)N[C@@H](Cc1c[nH]c2ccccc12)C(N)=O)[C@@H](C)CC)C(C)C` [MTS-TMFD labelled S100C], the “Crosslinked Mcl-1 (crosslinking efficiency)” value is on record as 31 ± 3%.

Take `CC[C@H](C)[C@H](NC(=O)[C@H](CC(N)=O)NC(=O)[C@H](CCCNC(=N)N)NC(=O)[C@H](CSSCCC1(C)N=N1)NC(=O)[C@@H](NC(=O)[C@H](CC(=O)O)NC(=O)[C@H](CCC(=O)O)NC(C)=O)[C@@H](C)CC)C(=O)N[C@@H](C)C(=O)N[C@@H](CCCNC(=N)N)C(=O)N[C@@H](Cc1c[nH]cn1)C(=O)N[C@@H](CC(C)C)C(=O)N[C@@H](C)C(=O)N[C@@H](CCC(N)=O)C(=O)N[C@H](C(=O)NCC(=O)N[C@@H](CC(=O)O)C(=O)N[C@@H](CO)C(=O)N[C@@H](CCSC)C(=O)N[C@@H](CC(=O)O)C(=O)N[C@@H](CCCNC(=N)N)C(=O)N[C@@H](CO)C(=O)N[C@H](C(=O)N[C@@H](Cc1c[nH]c2ccccc12)C(N)=O)[C@@H](C)CC)C(C)C` [MTS-diazirine labelled I83C] (Ac-EDIC(X2)RNIARHLAQVGDSMDRSIW-NH2): the “Crosslinked Mcl-1 (crosslinking efficiency)” value is reported as 19 ± 2%.

Take `CC[C@H](C)[C@H](NC(=O)[C@H](CO)NC(=O)[C@H](CCCNC(=N)N)NC(=O)[C@H](CC(=O)O)NC(=O)[C@H](CCSC)NC(=O)[C@H](CO)NC(=O)[C@H](CC(=O)O)NC(=O)CNC(=O)[C@@H](NC(=O)[C@H](CCC(N)=O)NC(=O)[C@H](C)NC(=O)[C@H](CC(C)C)NC(=O)[C@H](Cc1c[nH]cn1)NC(=O)[C@H](CCCNC(=N)N)NC(=O)[C@H](C)NC(=O)[C@H](CSSCCC1(C)N=N1)NC(=O)[C@H](CC(N)=O)NC(=O)[C@H](CCCNC(=N)N)NC(=O)[C@@H](NC(=O)[C@@H](NC(=O)[C@H](CC(=O)O)NC(=O)[C@H](CCC(=O)O)NC(C)=O)[C@@H](C)CC)[C@@H](C)CC)C(C)C)C(=O)N[C@@H](Cc1c[nH]c2ccccc12)C(N)=O` [MTS-diazirine labelled I86C] (Ac-EDIIRNC(X2)ARHLAQVGDSMDRSIW-NH2): the “Crosslinked Mcl-1 (crosslinking efficiency)” value turned out to be 16 ± 2%.

For the molecule `CC[C@H](C)[C@H](NC(=O)[C@H](CC(N)=O)NC(=O)[C@H](CCCNC(=N)N)NC(=O)[C@@H](NC(=O)[C@@H](NC(=O)[C@H](CC(=O)O)NC(=O)[C@H](CCC(=O)O)NC(C)=O)[C@@H](C)CC)[C@@H](C)CC)C(=O)N[C@@H](C)C(=O)N[C@@H](CCCNC(=N)N)C(=O)N[C@@H](Cc1c[nH]cn1)C(=O)N[C@@H](CC(C)C)C(=O)N[C@@H](C)C(=O)N[C@@H](CCC(N)=O)C(=O)N[C@H](C(=O)NCC(=O)N[C@@H](CC(=O)O)C(=O)N[C@@H](CO)C(=O)N[C@@H](CSSCCC1(C)N=N1)C(=O)N[C@@H](CC(=O)O)C(=O)N[C@@H](CCCNC(=N)N)C(=O)N[C@@H](CO)C(=O)N[C@H](C(=O)N[C@@H](Cc1c[nH]c2ccccc12)C(N)=O)[C@@H](C)CC)C(C)C` [MTS-diazirine labelled M97C] (Ac-EDIIRNIARHLAQVGDSC(X2)DRSIW-NH2), the “Crosslinked Mcl-1 (crosslinking efficiency)” value is recorded as 41 ± 6%.

For the origin of these results see PMC6348423, “Rapid Mapping of Protein Interactions Using Tag‐Transfer Photocrosslinkers” (Angewandte Chemie (International Ed. in English), 2018).
